Square brackets hold non-standard residues; d marks the D form. Primed or numbered codes have the meaning given here. Ends that are not written are not given here. Nal″ = Z is Nal (naphthylalanine; Nal = Z in the sequences is Nal; Aib = CC(C)(N)C(=O)O
How the values were obtained:
[1] = Circular dichroism: degree of helicity; format: physicochemical; settings: for He (%) TFE / He (%) free / He (%) mics / He (%) SUVs: percent helicity, 37° C.; for He (%) TFE: 5 μM peptide, 90% vol TFE; for He (%) free: unbound peptide, 5 μM in 5 mM phosphate buffer, pH 7.4; for He (%) mics: peptide-micelle complexes (1-myristoyl-2-hydroxy-sn-glycero-3-phosphatidyl choline, Ri=100); for He (%) SUVs: peptide-SUV complexes (20:1 EPC:Chol., Ri=50)
Description: Far UV circular dichroism spectra were recorded between 190 and 260 nm (in 0.5 nm or 0.2 nm increments) with a AVIV62DS spectrometer (AVIV Associates, Lakewood, N.J., USA) equipped with a thermoelectric cell holder and sample changer. The instrument was calibrated with (+)-10-[…]. Between one and three scans were collected for each sample, using 10 cm, 5 cm, 1 cm and 0.1 cm path length quartz Suprasil cells, respectively, for peptide concentrations of 10^−7 M to 10^−4 M. The bandwidth was fixed at 1.5 nm and the scan speed to 1s per wavelength step. The reported data are the mean of at least 2 or 3 independent measurements.
After background subtraction, spectra were converted to molar ellipticity (θ) per residue in […]. The peptide concentration was determined by amino acid analysis and also by absorption spectrometry on a Perkin Elmer Lambda 17 UV/Visible spectrophotometer when the peptide contained a chromophore (tryptophan, dansyl, naphthylalanine).
CD spectra were obtained with free, unbound peptide (5 μM in 5 mM phosphate buffer, pH 7.4); with peptide-SUV complexes (20:1 EPC:Chol., Ri=50); with peptide-micelle complexes (1-myristoyl-2-hydroxy-sn-glycero-3-phosphatidyl choline, Ri=100); and with free, unbound peptide in the presence of 2,2,2-trifluoroethanol (TFE) (5 μM peptide, 90% vol TFE).
The SUVs were obtained by dispersing the lipids (10 mM, 20:1 EPC:Chol., Avanti Polar Lipids, AL) in phosphate buffer (5 mM, pH 7.4) with bubbling N2 for 5 min., followed by sonication (1.5 hr.) in a bath sonicator. The homogeneity of the preparation was checked by FPLC.
The micelles were obtained by dispersing the lipid (6 mM 1-myristoyl-2-hydroxy-sn-glycero-3-phosphatidyl choline, Avanti Polar Lipids, AL) in phosphate buffer (5 mM, pH 7.4) with bubbling N2 for 5 min., followed by vortexing.
To obtain the peptide-SUV complexes, SUVs were added to the peptide (5 μM in 5 mM phosphate buffer, pH 7.4) at a phospholipid-peptide molar ratio (Ri) of […].
To obtain the peptide-micelle complexes, micelles were added to the peptide (5 μM in 5 mM phosphate buffer, pH 7.4) at a Ri of 100.
All spectra were recorded at 37° C. The stability of peptide 210 (SEQ ID NO:210) as a function of temperature (both free in buffer and in micelles) was determined by recording spectra at a series of different temperatures.
The degree of helicity of the peptides in the various conditions was determined from the mean residue ellipticity at 222 nm (Chen et al., 1974, Biochemistry 13:3350-3359) or by comparing the CD spectra obtained to reference spectra available on databases (16 helical reference spectra from Provencher & Glockner, 1981, Biochemistry 20:33-37; denatured protein reference spectra from Venyaminov et al., 1993, Anal. Biochem. 214:17-24) using the CONTIN curve-fitting algorithm version 2DP, CD-1 pack (August 1982) (Provencher, 1982, Comput. Phys. Commun. 27:213-227, 229-242). Acceptable fit was determined using the statistical analysis methodology provided by the CONTIN algorithm. The error of all methods was ±5% helicity.

[2] = Lipid binding by fluorescence spectroscopy; settings: for I/Io: peptide 2 μM, 37° C.
Description: The lipid binding properties of the peptides synthesized in Section 6, supra, were tested by fluorescence measurements with labeled peptides, in the present case tryptophan (Trp or W) or naphthylalanine (Nal). The fluorescence spectra were recorded on a Fluoromax from Spex (Jobin-Yvon) equipped with a Xenon lamp of 150 W, two monochromators (excitation and emission), a photomultiplier R-928 for detection sensitive in the red up to 850 nm and a thermoelectric magnetic stirred cell holder. Quartz Suprasil cuvettes were used for measurements in the micromolar concentration range. A device of variable slits (from 0.4 to 5 nm) allows modulation of the incident and emitted intensities according to the concentration of peptide used. The reported values are in general the average of between 2 to 4 spectra. The peptide concentration is determined by absorption spectrometry on a Philips PU 8800 using the absorption band of the Trp (∈280 nm=5,550 M^−1 cm^−1 in Tris buffer) or the Nal (∈224 nm=92,770 M^−1 cm^−1 in methanol).
Fluorescence spectra of the peptides were recorded between 290 nm and 450 nm in Tris-HCl buffer (20 mM, pH=7.5), in the presence and absence of lipidic vesicles. The small unilamellar vesicles were formed after rehydration in buffer of the lyophilized phospholipids, dispersion and tip sonification under a N2 stream. The lipids used were either Egg PC/Chol. (20:1) or POPC/Chol. (20:1). The spectra were recorded at a peptide concentration of 2 μM and at a temperature of 37° C. The fluorescence reference standard in the case of Trp was N-acetyltryptophanylamide (NATA).
Lipid binding studies were done through progressive lipidic vesicle addition to the peptide in solution at 2 μM (slits:5 nm in excitation and 1.5 nm in emission). Dilution effects were taken into account for the fluorescence intensity determination. The lipid concentrations were varied from 10 to 600 μM and the molar ratio of lipid to peptide (Ri) was varied from 5 to 300. The wavelength of excitation was set at 280 nm for both Trp and Nal.
The data were directly recorded and treated by an IBM-PC linked to the spectrofluorimeter through the DM3000F software from Spex. The spectra were corrected by substraction of the solvent contribution and by application of a coefficient given by the constructor taking into account the variation of the photomultiplier response versus the wavelength.
The fluorescence spectra of the peptides were characterized by the wavelength at their maximum of fluorescence emission and by their quantum yield compared to NATA in the case of peptides labeled with a tryptophan. The process of binding to lipids was analyzed by calculating the shift of the wavelength at the maximum of fluorescence emission, (λmax), and the variation of the relative fluorescence intensity of emission versus the lipid concentration. The relative fluorescence intensity is defined as the following ratio: (I-I0)λmax/I0λmax. I and I0 are both measured at the (λmax) corresponding to the initial free state of the peptide i.e., without lipids. I is the intensity at a defined lipid to peptide ratio and I0 is the same parameter measured in absence of lipids. The absence of these variations is relevant to the absence of interactions of the peptides with the lipids.

[3] = EPC/Chol (20:1) small unilamellar vesicles

Substance	He (%) TFE [1] [%]	He (%) free [1] [%]	He (%) mics [1] [%]	He (%) SUVs [1] [%]	further results
.klkgklaellenllerfldlvp [compound 107]	77				
EWLEAFYKKVLEKLKELF* (Ac-EWLEAFYKKVLEKLKELF-NH2) [compound 239, reference compound]		44	49		
GVLELFENLLERLLDALQKKLK [compound 145]	58	55	51		
PVLDLFRELLEELKQKLK [peptide 210]					stability of the α-helical structure as a function of temperature ([1]; temperature range of 5°-45° C., data not shown): completely stable
PVLDLFRELLNELLEAZKQKLK (PVLDLFRELLNELLEA[Nal″]KQKLK) [peptide 10]	71	60	87	70	
PVLDLFRELLNELZEALKQKLK (PVLDLFRELLNEL[Nal]EALKQKLK) [compound 27]	81	72	92	82	
PVLDLFRELWEELKQKLK* (Ac-PVLDLFRELWEELKQKLK-NH2) [peptide 199]					lipid binding (burying of the tryptophan, fluorescence intensity exaltation) [2, 3]: binds very effectively; lipid to peptide molar ratio at which the burying of the tryptophan residue is maximal [2, 3]: about 100; I/Io ([2]; Lipid:Peptide Molar Ratio (Ri) 0): 0; λmax (nm) ([2]; Ri 5): 344 nm; I/Io ([2]; Ri 5): 8; λmax (nm) ([2]; Ri 10): 339 nm; I/Io ([2]; Ri 10): 8; λmax (nm) ([2]; Ri 30): 328 nm; I/Io ([2]; Ri 30): 18; I/Io ([2]; Ri 60): 22; λmax (nm) ([2]; Ri 100): 326 nm; I/Io ([2]; Ri 100): 27; λmax (nm) ([2]; Ri 200): 325 nm; I/Io ([2]; Ri 200): 41; λmax (nm) ([2]; maximum of tryptophan fluorescence emission, Ri 0 (in buffer, no lipid), 2 μM): 348 nm
PVLDLFRWLLNEXLEALKQKLK (PVLDLFRWLLNE[Aib]LEALKQKLK) [compound 108]				54	
PVLDZFRELLNELLEALKQKLK (PVLD[Nal]FRELLNELLEALKQKLK) [compound 34]	62	58	67	68	
pVLELFENLLERLLDALQKKLK ([dP]VLELFENLLERLLDALQKKLK) [compound 144]	95	89	88		
pllellkellqellealkqklk ([dP][dL][dL][dE][dL][dL][dK][dE][dL][dL][dQ][dE][dL][dL][dE][dA][dL][dK][dQ][dK][dL][dK]) [compound 87]	100	100			
pvldefreklneXlealkqklk ([dP][dV][dL][dD][dE][dF][dR][dE][dK][dL][dN][dE][Aib][dL][dE][dA][dL][dK][dQ][dK][dL][dK]) [compound 44]		20	86		
pvldlfrellneXlealkqklk ([dP][dV][dL][dD][dL][dF][dR][dE][dL][dL][dN][dE][Aib][dL][dE][dA][dL][dK][dQ][dK][dL][dK]) [compound 96]	81	52	85	63	
pvldlfrellnellealkqklk [compound 100]	98	83	92		
